Assay results as given in patent US20080009458.

System: p53

GST-COP1
in vitro ubiquitination of p53 (immunoblot of ubiquitinated species of p53): Only with all of the reaction components and p53 present was COP1 able to directly ubiquitinate p53
